These results are taken from patent US20080009025A1, “PROTEIN KINASE REGULATION” (priority 1999, published 2008).

The target in this assay is PIFtide (24 residue synthetic peptide encompassing the PDK1 binding site on PIF) (human). Kind of assay: method not stated.
Chain of PIFtide (24 residue synthetic peptide encompassing the PDK1 binding site on PIF) (human) (peptide, as listed by the source): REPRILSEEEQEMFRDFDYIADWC

The substance “GST-PDK1[K115A] (from UniProt O15530 1-556) (enzyme)” returned a fold decrease in affinity (against wild type PDK1) of 10 fold.
